Experimental data as given in patent publication US20230357420A1 (VILLARIS THERAPEUTICS, published 2023).

Target: T1, Human CD122 (human, UniProt P14784 27-551)
T1 sequence: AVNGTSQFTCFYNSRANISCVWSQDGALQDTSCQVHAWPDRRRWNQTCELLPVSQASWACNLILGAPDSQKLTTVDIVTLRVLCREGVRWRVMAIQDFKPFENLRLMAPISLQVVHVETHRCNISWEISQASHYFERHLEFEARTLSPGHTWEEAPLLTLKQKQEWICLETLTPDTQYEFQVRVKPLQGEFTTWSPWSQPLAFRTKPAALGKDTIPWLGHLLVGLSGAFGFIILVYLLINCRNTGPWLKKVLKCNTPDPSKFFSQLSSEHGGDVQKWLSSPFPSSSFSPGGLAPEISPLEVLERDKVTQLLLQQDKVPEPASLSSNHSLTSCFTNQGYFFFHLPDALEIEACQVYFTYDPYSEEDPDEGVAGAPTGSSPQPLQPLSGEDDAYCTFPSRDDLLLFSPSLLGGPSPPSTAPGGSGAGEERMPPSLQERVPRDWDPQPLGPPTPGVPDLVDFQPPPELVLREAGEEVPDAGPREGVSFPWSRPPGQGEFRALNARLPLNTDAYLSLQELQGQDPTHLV
Assay: cell-based or functional assay

IC50, IL-15-induced M07e cell proliferation: 9.79 mg/L
B1: IgG1-MIKβ1 (humanized) (antibody, V domains shown)
VH: EVQLLESGGGLVQPGGSLRLSCAASGFSVTSYGVHWIRQAPGKGLEWLGVIWSGGSTDYNAAFISRLTISKDNSKNTVYFQMNSLQAEDTAIYYCARAGDYNYDGFAYWGQGTLVTVSS
VL: DIVLTQSPSSLSASVGDRVTITCSGSSSVSFMYWYQQRPGKAPRLLIYDTSNLASGVPSRFSGSGSGTSYTFTISSLQPEDIATYYCQQWSTYPLTFGQGTKVEVK
notes: also called VillMab-1; VillMAB-1
